These are literature values, as cited in paper PMC8044391.

Broadly, the Kd is the equilibrium constant for the complex coming apart.

The data set has as its target ICAM-1 (Homo sapiens) (UniProt P05362).

Chain of integrin αLβ2 (P20701 26-1090): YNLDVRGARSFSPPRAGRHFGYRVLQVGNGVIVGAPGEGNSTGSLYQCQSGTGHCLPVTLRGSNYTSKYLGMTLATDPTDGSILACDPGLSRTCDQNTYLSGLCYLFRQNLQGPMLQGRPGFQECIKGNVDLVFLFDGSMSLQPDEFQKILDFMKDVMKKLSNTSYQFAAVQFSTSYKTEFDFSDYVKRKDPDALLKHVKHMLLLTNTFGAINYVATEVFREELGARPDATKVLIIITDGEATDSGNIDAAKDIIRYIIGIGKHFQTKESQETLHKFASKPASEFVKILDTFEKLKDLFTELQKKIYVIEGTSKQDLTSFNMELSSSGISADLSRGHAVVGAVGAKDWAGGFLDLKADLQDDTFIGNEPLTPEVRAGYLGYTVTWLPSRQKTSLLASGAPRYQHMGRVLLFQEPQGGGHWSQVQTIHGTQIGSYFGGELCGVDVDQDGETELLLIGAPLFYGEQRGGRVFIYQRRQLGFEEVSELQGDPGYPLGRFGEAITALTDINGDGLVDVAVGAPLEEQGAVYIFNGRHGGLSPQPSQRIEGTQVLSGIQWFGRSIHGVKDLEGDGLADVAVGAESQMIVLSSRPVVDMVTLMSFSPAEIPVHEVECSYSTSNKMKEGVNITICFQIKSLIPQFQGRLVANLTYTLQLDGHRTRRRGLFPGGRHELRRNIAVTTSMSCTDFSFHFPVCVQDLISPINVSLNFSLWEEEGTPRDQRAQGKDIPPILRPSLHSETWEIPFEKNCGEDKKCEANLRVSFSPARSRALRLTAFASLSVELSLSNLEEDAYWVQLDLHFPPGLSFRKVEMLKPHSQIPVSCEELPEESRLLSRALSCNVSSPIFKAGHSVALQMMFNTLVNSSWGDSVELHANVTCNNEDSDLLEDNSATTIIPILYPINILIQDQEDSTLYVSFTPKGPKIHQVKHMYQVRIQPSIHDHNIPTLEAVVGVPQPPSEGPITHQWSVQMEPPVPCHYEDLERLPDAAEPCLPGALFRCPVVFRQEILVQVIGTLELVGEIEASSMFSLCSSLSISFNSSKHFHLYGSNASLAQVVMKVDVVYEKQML
Chain of integrin αLβ2 (P05107 23-700, further chain): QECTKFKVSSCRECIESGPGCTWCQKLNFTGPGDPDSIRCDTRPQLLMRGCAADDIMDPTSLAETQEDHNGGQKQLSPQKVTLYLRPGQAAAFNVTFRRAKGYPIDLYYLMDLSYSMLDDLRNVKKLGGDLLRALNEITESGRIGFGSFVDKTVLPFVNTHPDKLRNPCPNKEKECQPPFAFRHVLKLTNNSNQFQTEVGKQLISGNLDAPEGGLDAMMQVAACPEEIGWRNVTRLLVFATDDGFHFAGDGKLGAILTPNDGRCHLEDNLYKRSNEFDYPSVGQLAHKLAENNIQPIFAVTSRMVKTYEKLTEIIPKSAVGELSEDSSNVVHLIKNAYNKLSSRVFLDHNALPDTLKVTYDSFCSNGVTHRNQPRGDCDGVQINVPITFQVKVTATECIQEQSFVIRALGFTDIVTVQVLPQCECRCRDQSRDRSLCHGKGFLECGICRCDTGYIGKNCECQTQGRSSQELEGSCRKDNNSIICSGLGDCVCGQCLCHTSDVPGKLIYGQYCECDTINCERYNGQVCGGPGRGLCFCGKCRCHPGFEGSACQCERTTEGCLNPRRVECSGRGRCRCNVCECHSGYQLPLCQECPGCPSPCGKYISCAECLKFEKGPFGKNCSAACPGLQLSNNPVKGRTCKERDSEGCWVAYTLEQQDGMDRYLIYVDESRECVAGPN
Chain of ICAM-1 (Homo sapiens) (P05362 28-480): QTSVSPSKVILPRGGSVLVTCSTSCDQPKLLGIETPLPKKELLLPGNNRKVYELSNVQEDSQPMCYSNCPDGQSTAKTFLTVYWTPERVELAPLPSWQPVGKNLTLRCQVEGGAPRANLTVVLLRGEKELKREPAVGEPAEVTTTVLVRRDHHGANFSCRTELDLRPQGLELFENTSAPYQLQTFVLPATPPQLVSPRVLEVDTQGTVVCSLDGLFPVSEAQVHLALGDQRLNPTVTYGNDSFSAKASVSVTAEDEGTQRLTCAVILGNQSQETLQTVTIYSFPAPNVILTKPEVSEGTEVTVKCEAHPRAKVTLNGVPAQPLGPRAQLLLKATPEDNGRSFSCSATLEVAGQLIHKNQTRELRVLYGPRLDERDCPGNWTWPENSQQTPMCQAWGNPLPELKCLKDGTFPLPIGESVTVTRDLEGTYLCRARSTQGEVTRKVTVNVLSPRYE

For integrin αLβ2 (from UniProt P20701), the Kd is 26 µM.
